This is an account of results in paper PMC5143326.

In one test the target is LRP1 (Homo sapiens) (UniProt Q07954). The conditions noted are these: cited from earlier work.
Test [1] deals with low density lipoprotein receptor-related protein 1 (LRP1), purified from placenta. In words: SPR; Biacore T100; LRP1 immobilised on CM5 chip at 3.4 fmol/mm2; CCN-2 or its fragments flowed over; 10 mM Hepes pH 7.4, 150 mM NaCl, 5 mM CaCl2, 0.005 % surfactant P20; 25 °C; affinity constants by steady-state analysis. In general terms: SPR reads the build-up and loss of mass on a sensor chip optically.

Sequence of UniProt Q07954 (Q07954 20-4544): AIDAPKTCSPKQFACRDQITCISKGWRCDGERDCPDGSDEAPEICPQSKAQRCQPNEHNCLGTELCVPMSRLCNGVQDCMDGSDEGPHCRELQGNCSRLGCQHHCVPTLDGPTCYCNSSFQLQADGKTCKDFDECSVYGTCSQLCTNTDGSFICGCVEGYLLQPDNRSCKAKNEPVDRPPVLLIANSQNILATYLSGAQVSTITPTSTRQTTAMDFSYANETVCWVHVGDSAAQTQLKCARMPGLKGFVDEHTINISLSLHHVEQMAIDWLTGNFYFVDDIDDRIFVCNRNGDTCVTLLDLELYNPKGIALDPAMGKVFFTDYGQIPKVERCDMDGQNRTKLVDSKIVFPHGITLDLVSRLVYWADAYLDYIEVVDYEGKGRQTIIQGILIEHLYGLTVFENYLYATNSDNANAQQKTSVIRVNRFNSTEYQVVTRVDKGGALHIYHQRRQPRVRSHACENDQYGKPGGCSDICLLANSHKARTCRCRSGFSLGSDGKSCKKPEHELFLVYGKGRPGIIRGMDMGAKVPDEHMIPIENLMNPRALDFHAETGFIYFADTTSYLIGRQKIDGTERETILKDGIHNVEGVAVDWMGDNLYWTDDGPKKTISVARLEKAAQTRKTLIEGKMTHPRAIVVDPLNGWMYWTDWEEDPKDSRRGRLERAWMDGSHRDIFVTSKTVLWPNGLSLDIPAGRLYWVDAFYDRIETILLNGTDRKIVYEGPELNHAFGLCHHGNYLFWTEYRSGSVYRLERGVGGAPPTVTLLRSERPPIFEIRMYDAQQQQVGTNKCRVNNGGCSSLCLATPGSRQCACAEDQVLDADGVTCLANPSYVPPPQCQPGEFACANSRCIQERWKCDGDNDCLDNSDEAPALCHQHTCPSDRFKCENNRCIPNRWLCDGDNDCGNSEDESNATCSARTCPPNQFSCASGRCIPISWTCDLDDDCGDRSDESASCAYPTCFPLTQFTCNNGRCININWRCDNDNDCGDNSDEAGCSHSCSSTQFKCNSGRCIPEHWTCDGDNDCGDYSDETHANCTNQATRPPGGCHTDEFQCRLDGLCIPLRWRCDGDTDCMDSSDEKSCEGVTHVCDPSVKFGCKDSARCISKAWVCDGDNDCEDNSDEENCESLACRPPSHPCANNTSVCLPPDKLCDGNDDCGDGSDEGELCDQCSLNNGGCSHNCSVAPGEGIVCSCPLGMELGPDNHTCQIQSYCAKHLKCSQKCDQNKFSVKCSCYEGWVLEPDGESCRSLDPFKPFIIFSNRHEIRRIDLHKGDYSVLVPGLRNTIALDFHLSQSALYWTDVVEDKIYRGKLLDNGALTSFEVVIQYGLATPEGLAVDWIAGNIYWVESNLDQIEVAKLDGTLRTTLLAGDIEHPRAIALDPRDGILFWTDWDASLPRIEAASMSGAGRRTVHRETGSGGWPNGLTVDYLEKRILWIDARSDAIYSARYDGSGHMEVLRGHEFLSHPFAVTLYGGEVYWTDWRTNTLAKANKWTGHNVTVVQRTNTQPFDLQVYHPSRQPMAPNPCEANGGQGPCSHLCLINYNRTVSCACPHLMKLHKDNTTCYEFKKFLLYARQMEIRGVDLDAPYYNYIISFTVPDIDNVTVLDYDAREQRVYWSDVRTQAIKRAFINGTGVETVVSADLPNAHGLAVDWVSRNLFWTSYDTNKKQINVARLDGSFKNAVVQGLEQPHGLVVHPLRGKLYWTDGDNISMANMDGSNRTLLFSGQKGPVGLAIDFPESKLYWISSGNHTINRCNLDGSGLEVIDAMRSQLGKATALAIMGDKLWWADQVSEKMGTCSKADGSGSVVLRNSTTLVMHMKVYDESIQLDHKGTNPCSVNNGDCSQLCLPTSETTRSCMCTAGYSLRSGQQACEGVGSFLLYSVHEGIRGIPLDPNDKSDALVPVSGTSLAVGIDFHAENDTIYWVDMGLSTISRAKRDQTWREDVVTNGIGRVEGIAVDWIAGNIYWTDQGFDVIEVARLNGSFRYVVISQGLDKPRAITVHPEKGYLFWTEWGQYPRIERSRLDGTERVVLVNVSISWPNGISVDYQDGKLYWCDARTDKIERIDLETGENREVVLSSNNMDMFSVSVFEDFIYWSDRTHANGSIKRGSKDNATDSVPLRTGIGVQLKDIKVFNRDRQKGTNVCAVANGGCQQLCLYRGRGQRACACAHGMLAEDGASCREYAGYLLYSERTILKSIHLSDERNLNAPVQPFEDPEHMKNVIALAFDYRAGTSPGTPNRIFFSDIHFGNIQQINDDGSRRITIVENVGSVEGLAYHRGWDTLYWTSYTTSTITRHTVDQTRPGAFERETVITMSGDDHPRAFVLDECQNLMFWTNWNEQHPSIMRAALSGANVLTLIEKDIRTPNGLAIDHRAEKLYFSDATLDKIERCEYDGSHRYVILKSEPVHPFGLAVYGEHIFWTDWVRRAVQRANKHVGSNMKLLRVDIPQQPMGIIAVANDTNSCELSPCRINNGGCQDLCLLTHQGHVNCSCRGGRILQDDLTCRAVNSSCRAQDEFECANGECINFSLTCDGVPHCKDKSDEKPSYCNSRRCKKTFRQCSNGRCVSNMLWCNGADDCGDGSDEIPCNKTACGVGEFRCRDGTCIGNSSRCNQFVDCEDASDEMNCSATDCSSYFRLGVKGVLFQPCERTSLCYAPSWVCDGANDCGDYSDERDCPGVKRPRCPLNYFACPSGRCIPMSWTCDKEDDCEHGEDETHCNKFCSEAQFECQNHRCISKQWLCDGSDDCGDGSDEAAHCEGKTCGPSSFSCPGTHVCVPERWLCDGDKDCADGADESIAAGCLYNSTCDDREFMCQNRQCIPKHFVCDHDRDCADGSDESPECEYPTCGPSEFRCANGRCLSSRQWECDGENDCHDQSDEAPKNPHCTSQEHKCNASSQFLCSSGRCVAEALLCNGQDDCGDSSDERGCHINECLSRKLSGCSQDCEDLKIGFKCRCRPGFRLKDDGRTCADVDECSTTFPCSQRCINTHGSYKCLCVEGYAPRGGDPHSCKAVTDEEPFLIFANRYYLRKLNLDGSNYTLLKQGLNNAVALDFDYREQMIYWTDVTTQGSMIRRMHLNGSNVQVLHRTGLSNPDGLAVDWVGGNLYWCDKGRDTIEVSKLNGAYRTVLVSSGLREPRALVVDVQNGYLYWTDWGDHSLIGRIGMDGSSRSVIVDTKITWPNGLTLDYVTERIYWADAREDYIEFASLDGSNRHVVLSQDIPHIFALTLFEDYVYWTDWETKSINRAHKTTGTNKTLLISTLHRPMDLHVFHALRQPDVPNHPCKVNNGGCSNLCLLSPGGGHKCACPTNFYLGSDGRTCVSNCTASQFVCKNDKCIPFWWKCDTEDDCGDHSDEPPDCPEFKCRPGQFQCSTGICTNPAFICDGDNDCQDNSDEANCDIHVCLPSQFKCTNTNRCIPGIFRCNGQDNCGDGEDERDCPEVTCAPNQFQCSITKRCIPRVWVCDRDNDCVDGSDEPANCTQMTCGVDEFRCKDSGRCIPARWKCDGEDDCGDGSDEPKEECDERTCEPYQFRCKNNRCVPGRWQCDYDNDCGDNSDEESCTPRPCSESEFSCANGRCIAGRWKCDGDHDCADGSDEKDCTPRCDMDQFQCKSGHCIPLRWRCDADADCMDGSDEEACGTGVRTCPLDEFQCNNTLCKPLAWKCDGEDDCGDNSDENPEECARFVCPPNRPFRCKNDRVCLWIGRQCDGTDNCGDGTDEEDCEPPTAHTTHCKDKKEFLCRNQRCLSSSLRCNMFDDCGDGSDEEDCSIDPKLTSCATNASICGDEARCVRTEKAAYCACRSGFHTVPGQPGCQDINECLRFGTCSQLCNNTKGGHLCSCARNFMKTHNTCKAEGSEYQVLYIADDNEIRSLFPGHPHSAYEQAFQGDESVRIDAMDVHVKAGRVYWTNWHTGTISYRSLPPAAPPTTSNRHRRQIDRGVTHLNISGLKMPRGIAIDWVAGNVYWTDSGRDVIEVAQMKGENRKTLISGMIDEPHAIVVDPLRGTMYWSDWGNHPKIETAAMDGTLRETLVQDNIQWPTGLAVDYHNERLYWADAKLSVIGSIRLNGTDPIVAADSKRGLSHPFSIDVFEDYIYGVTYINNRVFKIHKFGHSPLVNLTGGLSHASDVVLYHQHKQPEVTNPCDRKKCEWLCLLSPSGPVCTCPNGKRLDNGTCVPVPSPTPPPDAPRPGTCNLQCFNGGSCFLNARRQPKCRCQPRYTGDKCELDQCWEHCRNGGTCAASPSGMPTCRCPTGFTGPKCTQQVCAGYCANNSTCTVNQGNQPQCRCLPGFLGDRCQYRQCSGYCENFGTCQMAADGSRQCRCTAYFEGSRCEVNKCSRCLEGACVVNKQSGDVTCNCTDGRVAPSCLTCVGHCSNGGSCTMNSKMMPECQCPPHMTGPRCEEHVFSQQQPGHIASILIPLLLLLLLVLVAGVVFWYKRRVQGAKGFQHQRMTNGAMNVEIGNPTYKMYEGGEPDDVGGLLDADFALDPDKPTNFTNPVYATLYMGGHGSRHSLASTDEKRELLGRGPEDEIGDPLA

In the case of RAP (from UniProt P30533), the Kd (commonly the constant that tells how readily two partners part at equilibrium) with LRP1 (Homo sapiens) was 0.0054 µM.
In test [1], “recombinant human full length CCN-2 (connective tissue growth factor) (from UniProt P29279 27-349) (natural protein)” displayed a Kd of 0.116 µM.
Same read-out and setting: to “recombinant human CCN-2 C-terminal fragment (domain 3 and 4) (domain or fragment)” belongs 0.112 µM.
